Reference: PMC10979099 (The Journal of Biological Chemistry, 2024)

Target: Sra1 (human, UniProt Q7L576 1-1253)
Experiment: reconstitution and co-purification

Sequence of Sra1 (Q7L576 whole entry): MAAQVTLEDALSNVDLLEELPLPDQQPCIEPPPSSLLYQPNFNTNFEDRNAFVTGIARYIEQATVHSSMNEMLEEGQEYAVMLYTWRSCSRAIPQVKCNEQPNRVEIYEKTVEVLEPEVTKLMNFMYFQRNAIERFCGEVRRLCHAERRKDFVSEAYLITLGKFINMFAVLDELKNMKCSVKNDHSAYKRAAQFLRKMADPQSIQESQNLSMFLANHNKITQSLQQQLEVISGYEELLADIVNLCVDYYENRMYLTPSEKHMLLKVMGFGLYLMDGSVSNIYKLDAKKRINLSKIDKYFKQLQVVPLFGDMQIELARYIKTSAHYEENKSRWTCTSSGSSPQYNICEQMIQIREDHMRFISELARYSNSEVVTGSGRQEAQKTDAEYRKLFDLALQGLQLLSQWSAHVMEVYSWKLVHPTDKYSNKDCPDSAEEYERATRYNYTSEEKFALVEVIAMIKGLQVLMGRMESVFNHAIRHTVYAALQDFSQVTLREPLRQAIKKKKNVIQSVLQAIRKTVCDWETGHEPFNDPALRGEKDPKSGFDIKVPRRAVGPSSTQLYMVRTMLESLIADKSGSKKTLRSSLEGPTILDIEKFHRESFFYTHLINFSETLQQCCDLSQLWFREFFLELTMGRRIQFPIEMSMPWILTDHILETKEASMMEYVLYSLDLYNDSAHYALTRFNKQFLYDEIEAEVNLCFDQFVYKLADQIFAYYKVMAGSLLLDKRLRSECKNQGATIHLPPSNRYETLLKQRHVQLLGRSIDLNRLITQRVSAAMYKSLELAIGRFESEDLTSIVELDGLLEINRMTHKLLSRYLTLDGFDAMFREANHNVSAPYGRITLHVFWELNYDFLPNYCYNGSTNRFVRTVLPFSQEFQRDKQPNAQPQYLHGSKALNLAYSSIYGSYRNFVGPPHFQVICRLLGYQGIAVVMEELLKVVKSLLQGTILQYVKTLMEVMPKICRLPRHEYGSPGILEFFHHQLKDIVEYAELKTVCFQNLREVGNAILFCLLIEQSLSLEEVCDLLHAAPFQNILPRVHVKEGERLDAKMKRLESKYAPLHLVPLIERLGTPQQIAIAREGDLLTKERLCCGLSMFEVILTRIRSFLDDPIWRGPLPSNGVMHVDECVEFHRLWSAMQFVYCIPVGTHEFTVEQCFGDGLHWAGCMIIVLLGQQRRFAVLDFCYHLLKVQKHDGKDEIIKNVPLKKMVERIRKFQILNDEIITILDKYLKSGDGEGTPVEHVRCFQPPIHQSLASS

B1: Nap1 (natural protein)
chain: MSRSVLQPSQQKLAEKLTILNDRGVGMLTRLYNIKKACGDPKAKPSYLIDKNLESAVKFIVRKFPAVETRNNNQQLAQLQKEKSEILKNLALYYFTFVDVMEFKDHVCELLNTIDVCQVFFDITVNFDLTKNYLDLIITYTTLMILLSRIEERKAIIGLYNYAHEMTHGASDREYPRLGQMIVDYENPLKKMMEEFVPHSKSLSDALISLQMVYPRRNLSADQWRNAQLLSLISAPSTMLNPAQSDTMPCEYLSLDAMEKWIIFGFILCHGILNTDATALNLWKLALQSSSCLSLFRDEVFHIHKAAEDLFVNIRGYNKRINDIRECKEAAVSHAGSMHRERRKFLRSALKELATVLSDQPGLLGPKALFVFMALSFARDEIIWLLRHADNMPKKSADDFIDKHIAELIFYMEELRAHVRKYGPVMQRYYVQYLSGFDAVVLNELVQNLSVCPEDESIIMSSFVNTMTSLSVKQVEDGEVFDFRGMRLDWFRLQAYTSVSKASLGLADHRELGKMMNTIIFHTKMVDSLVEMLVETSDLSIFCFYSRAFEKMFQQCLELPSQSRYSIAFPLLCTHFMSCTHELCPEERHHIGDRSLSLCNMFLDEMAKQARNLITDICTEQCTLSDQLLPKHCAKTISQAVNKKSKKQTGKKGEPEREKPGVESMRKNRLVVTNLDKLHTALSELCFSINYVPNMVVWEHTFTPREYLTSHLEIRFTKSIVGMTMYNQATQEIAKPSELLTSVRAYMTVLQSIENYVQIDITRVFNNVLLQQTQHLDSHGEPTITSLYTNWYLETLLRQVSNGHIAYFPAMKAFVNLPTENELTFNAEEYSDISEMRSLSELLGPYGMKFLSESLMWHISSQVAELKKLVVENVDVLTQMRTSFDKPDQMAALFKRLSSVDSVLKRMTIIGVILSFRSLAQEALRDVLSYHIPFLVSSIEDFKDHIPRETDMKVAMNVYELSSAAGLPCEIDPALVVALSSQKSENISPEEEYKIACLLMVFVAVSLPTLASNVMSQYSPAIEGHCNNIHCLAKAINQIAAALFTIHKGSIEDRLKEFLALASSSLLKIGQETDKTTTRNRESVYLLLDMIVQESPFLTMDLLESCFPYVLLRNAYHAVYKQSVTSSA
binding result: binds
